This is an account of results in the supplement of paper PMC5998384.

The test system of data set [1] is HeLa Kyoto. Kind of data set: solubility in G1/S (NP-40 vs SDS abundance) (log2 ratio); higher = more soluble. The settings on record: cell cycle stage: G1/S.
The test system of data set [2] is HeLa Kyoto. As to the kind of experiment: solubility change mitosis vs G1/S (difference of NP-40 vs SDS log2 ratios) (log2 ratio difference); higher = more soluble in mitosis.
Data set [3] relates to HeLa Kyoto. Kind of data set: melting temperature (median over replicates), in situ; higher = more thermally stable.
The test system of data set [4] is HeLa Kyoto. As to the kind of experiment: thermal stability score vs G1/S (z-score of summed log2 fold changes over temperatures); higher = more thermally stable than in G1/S.
The mark [5] stands for this setting: cell cycle stage: early G1 (4.5 h after nocodazole release).
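Throughout, for melting temperature (median over replicates), in situ: HeLa Kyoto cells synchronized by double thymidine or nocodazole block, proteins quantified by TMT10plex mass spectrometry, three independent biological replicates.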
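Throughout, for solubility change mitosis vs G1/S (difference of NP-40 vs SDS log2 ratios): synchronized HeLa Kyoto cells (double thymidine block for G1/S, nocodazole release for mitosis), protein amounts in NP-40 versus SDS lysates quantified by mass spectrometry, three biological replicates.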
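Throughout, for solubility in G1/S (NP-40 vs SDS abundance): HeLa Kyoto cells arrested at G1/S by double thymidine block, proteins quantified by TMT10plex mass spectrometry in mild NP-40 versus SDS extracts, three biological replicates.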
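Throughout, for thermal stability score vs G1/S (z-score of summed log2 fold changes over temperatures): synchronized HeLa Kyoto cells, proteins quantified by TMT10plex mass spectrometry, three biological replicates, mitosis taken 0.5 h after nocodazole release, G1/S directly after double thymidine block.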

Chain of OXSM (chain, as listed by the source): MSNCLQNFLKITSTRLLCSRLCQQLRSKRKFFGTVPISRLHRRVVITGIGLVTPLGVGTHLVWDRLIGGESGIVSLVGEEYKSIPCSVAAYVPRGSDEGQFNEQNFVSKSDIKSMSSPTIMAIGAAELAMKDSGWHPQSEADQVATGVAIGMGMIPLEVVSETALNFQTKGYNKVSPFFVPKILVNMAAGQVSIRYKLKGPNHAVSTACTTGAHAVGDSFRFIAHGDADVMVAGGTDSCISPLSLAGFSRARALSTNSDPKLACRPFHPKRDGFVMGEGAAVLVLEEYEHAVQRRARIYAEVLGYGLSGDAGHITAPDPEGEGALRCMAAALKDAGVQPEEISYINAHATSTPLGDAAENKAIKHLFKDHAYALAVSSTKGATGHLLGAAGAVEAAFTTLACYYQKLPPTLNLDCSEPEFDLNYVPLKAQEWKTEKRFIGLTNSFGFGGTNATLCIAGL

In the case of “MAETAAGVGRFKTNYAVERKIEPFYKGGKAQLDQTGQHLFCVCGTRVNILEVASGAVLRSLEQEDQEDITAFDLSPDNEVLVTASRALLLAQWAWQEGSVTRLWKAIHTAPVATMAFDPTSTLLATGGCDGAVRVWDIVRHYGTHHFRGSPGVVHLVAFHPDPTRLLLFSSATDAAIRVWSLQDRSCLAVLTAHYSAVTSLAFSADGHTMLSSGRDKICIIWDLQSCQATRTVPVFESVEAAVLLPEEPVSQLGVKSPGLYFLTAGDQGTLRVWEAASGQCVYTQAQPPGPGQELTHCTLAHTAGVVLTATADHNLLLYEARSLRLQKQFAGYSEEVLDVRFLGPEDSHVVVASNSPCLKVFELQTSACQILHGHTDIVLALDVFRKGWLFASCAKDQSVRIWRMNKAGQVMCVAQGSGHTHSVGTVCCSRLKESFLVTGSQDCTVKLWPLPKALLSKNTAPDNGPILLQAQTTQRCHDKDINSVAIAPNDKLLATGSQDRTAKLWALPQCQLLGVFSGHRRGLWCVQFSPMDQVLATASADGTIKLWALQDFSCLKTFEGHDASVLKVAFVSRGTQLLSSGSDGLVKLWTIKNNECVRTLDAHEDKVWGLHCSRLDDHALTGASDSRVILWKDVTEAEQAEEQARQEEQVVRQQELDNLLHEKRYLRALGLAISLDRPHTVLTVIQAIRRDPEACEKLEATMLRLRRDQKEALLRFCVTWNTNSRHCHEAQAVLGVLLRREAPEELLAYEGVRAALEALLPYTERHFQRLSRTLQAAAFLDFLWHNMKLPVPAAAPTPWETHKGALP [TBL3]”, in data set [1], the “solubility in G1/S (log2)” value is -0.936. Also, in data set [2], the “solubility change mitosis (log2)” value stood at 0.233. Besides, the melting temperature in data set [3] (cell cycle stage: G1/S) was found to be 50.6 °C; in data set [3] (cell cycle stage: mitosis), 51.3 °C. Besides, the thermal stability score in data set [4] (setting [5]) is 1.58; in data set [4] (cell cycle stage: mitosis), -0.746.

“MAPGQLALFSVSDKTGLVEFARNLTALGLNLVASGGTAKALRDAGLAVRDVSELTGFPEMLGGRVKTLHPAVHAGILARNIPEDNADMARLDFNLIRVVACNLYPFVKTVASPGVTVEEAVEQIDIGGVTLLRAAAKNHARVTVVCEPEDYVVVSTEMQSSESKDTSLETRRQLALKAFTHTAQYDEAISDYFRKQYSKGVSQMPLRYGMNPHQTPAQLYTLQPKLPITVLNGAPGFINLCDALNAWQLVKELKEALGIPAAASFKHVSPAGAAVGIPLSEDEAKVCMVYDLYKTLTPISAAYARARGADRMSSFGDFVALSDVCDVPTAKIISREVSDGIIAPGYEEEALTILSKKKNGNYCVLQMDQSYKPDENEVRTLFGLHLSQKRNNGVVDKSLFSNVVTKNKDLPESALRDLIVATIAVKYTQSNSVCYAKNGQVIGIGAGQQSRIHCTRLAGDKANYWWLRHHPQVLSMKFKTGVKRAEISNAIDQYVTGTIGEDEDLIKWKALFEEVPELLTEAEKKEWVEKLTEVSISSDAFFPFRDNVDRAKRSGVAYIAAPSGSAADKVVIEACDELGIILAHTNLRLFHH [ATIC]”: in data set [1], the “solubility in G1/S (log2)” value was 0.0708. In data set [2], the “solubility change mitosis (log2)” value was -0.093. Also, the melting temperature in data set [3] (cell cycle stage: G1/S) and in data set [3] (cell cycle stage: mitosis) was 54.4 °C each time. The thermal stability score in data set [4] (setting [5]) was -0.0275; in data set [4] (cell cycle stage: mitosis), 1.16.

Consider “MGKRDRADRDKKKSRKRHYEDEEDDEEDAPGNDPQEAVPSAAGKQVDESGTKVDEYGAKDYRLQMPLKDDHTSRPLWVAPDGHIFLEAFSPVYKYAQDFLVAIAEPVCRPTHVHEYKLTAYSLYAAVSVGLQTSDITEYLRKLSKTGVPDGIMQFIKLCTVSYGKVKLVLKHNRYFVESCHPDVIQHLLQDPVIRECRLRNSEGEATELITETFTSKSAISKTAESSGGPSTSRVTDPQGKSDIPMDLFDFYEQMDKDEEEEEETQTVSFEVKQEMIEELQKRCIHLEYPLLAEYDFRNDSVNPDINIDLKPTAVLRPYQEKSLRKMFGNGRARSGVIVLPCGAGKSLVGVTAACTVRKRCLVLGNSAVSVEQWKAQFKMWSTIDDSQICRFTSDAKDKPIGCSVAISTYSMLGHTTKRSWEAERVMEWLKTQEWGLMILDEVHTIPAKMFRRVLTIVQAHCKLGLTATLVREDDKIVDLNFLIGPKLYEANWMELQNNGYIAKVQCAEVWCPMSPEFYREYVAIKTKKRILLYTMNPNKFRACQFLIKFHERRNDKIIVFADNVFALKEYAIRLNKPYIYGPTSQGERMQILQNFKHNPKINTIFISKVGDTSFDLPEANVLIQISSHGGSRRQEAQRLGRVLRAKKGMVAEEYNAFFYSLVSQDTQEMAYSTKRQRFLVDQGYSFKVITKLAGMEEEDLAFSTKEEQQQLLQKVLAATDLDAEEEVVAGEFGSRSSQASRRFGTMSSMSGADDTVYMEYHSSRSKAPSKHVHPLFKRFRK [ERCC3]”, for which the “solubility in G1/S (log2)” value in data set [1] is -0.561. In data set [2], the “solubility change mitosis (log2)” value was -0.0174. The melting temperature in data set [3] (cell cycle stage: G1/S) amounted to 47.9 °C; in data set [3] (cell cycle stage: mitosis) it was 49.6 °C. Further, the figures for the thermal stability score in data set [4] (setting [5]) and in data set [4] (cell cycle stage: mitosis) were 0.89 and 1.14, respectively.

Turning to “MAAPILRSFSWGRWSGTLNLSVLLPLGLRKAHSGAQGLLAAQKARGLFKDFFPETGTKIELPELFDRGTASFPQTIYCGFDPTADSLHVGHLLALLGLFHLQRAGHNVIALVGGATARLGDPSGRTKEREALETERVRANARALRLGLEALAANHQQLFTDGRSWGSFTVLDNSAWYQKQHLVDFLAAVGGHFRMGTLLSRQSVQLRLKSPEGMSLAEFFYQVLQAYDFYYLFQRYGCRVQLGGSDQLGNIMSGYEFINKLTGEDVFGITVPLITSTTGAKLGKSAGNAVWLNRDKTSPFELYQFFVRQPDDSVERYLKLFTFLPLPEIDHIMQLHVKEPERRGPQKRLAAEVTKLVHGREGLDSAKRCTQALYHSSIDALEVMSDQELKELFKEAPFSEFFLDPGTSVLDTCRKANAIPDGPRGYRMITEGGVSINHQQVTNPESVLIVGQHILKNGLSLLKIGKRNFYIIKWLQL [YARS2]”, in data set [1], the “solubility in G1/S (log2)” value is 0.027. For the same substance, in data set [2], the “solubility change mitosis (log2)” value is -0.0352. Also, the melting temperature in data set [3] (cell cycle stage: G1/S) amounted to 48.8 °C; in data set [3] (cell cycle stage: mitosis), 48.2 °C. The results for the thermal stability score in data set [4] (setting [5]) and in data set [4] (cell cycle stage: mitosis) were 0.871 and 4.36, respectively.

Take “MSDNGELEDKPPAPPVRMSSTIFSTGGKDPLSANHSLKPLPSVPEEKKPRHKIISIFSGTEKGSKKKEKERPEISPPSDFEHTIHVGFDAVTGEFTGMPEQWARLLQTSNITKLEQKKNPQAVLDVLKFYDSNTVKQKYLSFTPPEKDGFPSGTPALNAKGTEAPAVVTEEEDDDEETAPPVIAPRPDHTKSIYTRSVIDPVPAPVGDSHVDGAAKSLDKQKKKTKMTDEEIMEKLRTIVSIGDPKKKYTRYEKIGQGASGTVFTATDVALGQEVAIKQINLQKQPKKELIINEILVMKELKNPNIVNFLDSYLVGDELFVVMEYLAGGSLTDVVTETCMDEAQIAAVCRECLQALEFLHANQVIHRDIKSDNVLLGMEGSVKLTDFGFCAQITPEQSKRSTMVGTPYWMAPEVVTRKAYGPKVDIWSLGIMAIEMVEGEPPYLNENPLRALYLIATNGTPELQNPEKLSPIFRDFLNRCLEMDVEKRGSAKELLQHPFLKLAKPLSSLTPLIMAAKEAMKSNR [PAK2]”: the “solubility in G1/S (log2)” value in data set [1] amounted to 0.152. Further, the “solubility change mitosis (log2)” value in data set [2] is -0.119. Also, the melting temperature in data set [3] (cell cycle stage: G1/S) turned out to be 54.9 °C; in data set [3] (cell cycle stage: mitosis), 54.6 °C. Besides, the thermal stability score is -1.97 in data set [4] (setting [5]) and -1.45 in data set [4] (cell cycle stage: mitosis).

Take OXSM: the “solubility in G1/S (log2)” value in data set [1] was -0.149. Further, in data set [2], the “solubility change mitosis (log2)” value was -0.0154. Besides, the melting temperature in data set [3] (cell cycle stage: G1/S) was found to be 58.8 °C; in data set [3] (cell cycle stage: mitosis) it was 61.2 °C. In addition, the thermal stability score in data set [4] (setting [5]) is 0.339; in data set [4] (cell cycle stage: mitosis) it was -0.889.

In the case of MDC1, the “solubility in G1/S (log2)” value in data set [1] was -0.295. The “solubility change mitosis (log2)” value in data set [2] amounted to 0.434. Further, the melting temperature in data set [3] (cell cycle stage: G1/S) was 51.2 °C; in data set [3] (cell cycle stage: mitosis), 52.1 °C. The thermal stability score is -1.53 in data set [4] (setting [5]) and 1.05 in data set [4] (cell cycle stage: mitosis).

As to “MAALTTLFKYIDENQDRYIKKLAKWVAIQSVSAWPEKRGEIRRMMEVAAADVKQLGGSVELVDIGKQKLPDGSEIPLPPILLGRLGSDPQKKTVCIYGHLDVQPAALEDGWDSEPFTLVERDGKLYGRGSTDDKGPVAGWINALEAYQKTGQEIPVNVRFCLEGMEESGSEGLDELIFARKDTFFKDVDYVCISDNYWLGKKKPCITYGLRGICYFFIEVECSNKDLHSGVYGGSVHEAMTDLILLMGSLVDKRGNILIPGINEAVAAVTEEEHKLYDDIDFDIEEFAKDVGAQILLHSHKKDILMHRWRYPSLSLHGIEGAFSGSGAKTVIPRKVVGKFSIRLVPNMTPEVVGEQVTSYLTKKFAELRSPNEFKVYMGHGGKPWVSDFSHPHYLAGRRAMKTVFGVEPDLTREGGSIPVTLTFQEATGKNVMLLPVGSADDGAHSQNEKLNRYNYIEGTKMLAAYLYEVSQLKD [CNDP2]”, the “solubility in G1/S (log2)” value in data set [1] was determined as 0.253. Besides, the “solubility change mitosis (log2)” value in data set [2] was -0.148. The melting temperature turned out to be 54.4 °C in data set [3] (cell cycle stage: G1/S) and 53.4 °C in data set [3] (cell cycle stage: mitosis). The thermal stability score is -6.23 in data set [4] (setting [5]) and -11.6 in data set [4] (cell cycle stage: mitosis).
